Results from US20050223436A1, “EPSP synthase highly tolerant to glyphosate” (priority 2003, published 2005).

Assays:
tobacco = test: Glyphosate tolerance of transgenic tobacco; format: in vivo; conditions: transgenic plants, greenhouse assays
Procedure: (4) Transformation of tobacco was carried out according to the leaf disc transformation protocol, using sterilized tissue of a healthy leaf of about 2 weeks old. The main vein was removed and the leaf was cut into small pieces of 2 cm^2.
(8) After development of the roots, plants were taken out. The attached solid culture media was washed off with sterile water. The plants were initially kept in a high humidity environment such as a plastic container with a glass cover for a few days. After the plants had grown stronger, the glass covers were removed, and the plants were transferred to solid culture media containing 10 mM glyphosate for screening of glyphosate tolerant plants.
(10) Glyphosate tolerance assays in greenhouse also confirmed that the transgenic plants could grow well in media containing 15 mM glyphosate.

E. coli JM109 = test: Glyphosate tolerance of E. coli JM109 transformants on MOPS media plates; format: cell-based; conditions: bacteria transformed with DNA encoding the enzyme (summary of Example 1)
Excerpt: A SuperCos1 Cosmid Vector kit (Stratagene Co., Ltd) was used to construct a community genomic DNA cosmid library. The community genomic DNA was digested with restriction endonuclease Sau3AI at 0.006 unit/microgram purified DNA. DNA fragments of about 40 kb were collected using the freeze-thaw method, and then ligated with SuperCos1/BamH1 vector. A cosmid genomic DNA library was constructed according to the manual of Stratagene Co., Ltd. For screening of glyphosate tolerant clones, JM109 E. coli was used as the acceptor bacterium for the genomic library construct, as glyphosate is only effective on an inhibitory medium such as M9 and MOPS. The ligated DNA was packaged into lambda phage particles (Stratagene, Gigapack Gold) according to the manufacturer's protocol. E. coli strain JM109 was infected with the packaged product. The transformants were selected on tetracycline LB media. Positive clones were then plated on LB media containing tetracycline and tetracycline+kanamycin, respectively. Clones growing on both media were considered as negative recombinants resulting from vector ligated with vector DNA. The number of positive transformants was calculated as the total number of colonies minus background false negative colonies. This number was used to determine the titer of the genomic library, which was 4×10^6 pfu/ml, meeting the requirement for library construction (>10^6 pfu/ml). […]

B1: EPSP synthase: novel 444 amino acid EPSP synthase highly tolerant to glyphosate, encoded by SEQ ID NO:1/3 (protein, listed as Unknown bacterium)
chain: MACLPDDSGPHVGHSTPPRLDQEPCTLSSQKTVTVTPPNFPLTGKVAPPGSKSITNRALLLAALAKGTSRLSGALKSDDTRHMSVALRQMGVTIDEPDDTTFVVTSQGSLQLPAQPLFLGNAGTAMRFLTAAVATVQGTVVLDGDEYMQKRPIGPLLATLGQNGIQVDSPTGCPPVTVHGMGKVQAKRFEIDGGLSSQYVSALLMLAACGEAPIEVALTGKDIGARGYVDLTLDCMRAFGAQVDAVDDTTWRVAPTGYTAHDYLIEPDASAATYLWAAEVLTGGRIDIGVAAQDFTQPDAKAQAVIAQFPNMQATVVGSQMQDAIPTLAVLAAFNNTPVRFTELANLRVKECDRVQALHDGLNEIRPGLATIEGDDLLVASDPALAGTACTALIDTHADHRIAMCFALAGLKVSGIRIQDPDCVAKTYPDYWKAWPSLGVHLND
glyphosate concentration in which transgenic tobacco grew (tobacco): 15 mM | glyphosate concentration of media in which transformed bacteria grew (E. coli JM109): 10 to 150 mM
